In patent US20040002450A1 (published 2004):
Non-standard residues stand in square brackets, D forms with d. No end group written: not given here. sY = N[C@@H](Cc1ccc(OS(=O)(=O)O)cc1)C(=O)O

T1: PSGL-1 on KG-1 cells (human, UniProt Q14242 42-412, sulfated tyrosines in the N-terminal site)
T1 construct: whole, on cells; results told for KG-1 cells are written against this molecule; also called P-Selectin Glycoprotein Ligand-1; CD162
T1 sequence (looked up): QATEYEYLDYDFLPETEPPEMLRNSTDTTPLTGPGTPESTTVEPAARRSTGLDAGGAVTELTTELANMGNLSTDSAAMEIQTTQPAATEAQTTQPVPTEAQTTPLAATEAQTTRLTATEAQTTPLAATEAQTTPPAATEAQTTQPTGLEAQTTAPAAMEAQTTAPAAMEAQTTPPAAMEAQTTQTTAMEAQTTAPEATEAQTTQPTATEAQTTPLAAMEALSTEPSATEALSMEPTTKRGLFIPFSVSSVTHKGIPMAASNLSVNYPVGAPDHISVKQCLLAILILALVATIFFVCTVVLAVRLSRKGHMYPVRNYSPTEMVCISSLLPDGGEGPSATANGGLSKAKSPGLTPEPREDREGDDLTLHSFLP

B1: Y1-cys-kak (cysteine dimer) (other)
scFv: MEVQLVESGGGVVRPGGSLRLSCAASGFTFDDYGMSWVRQAPGKGLEWVSGINWNGGSTGYADSVKGRFTISRDNAKNSLYLQMNSLRAEDTAVYYCARMRAPVIWGQGTLVTVSRGGGGSGGGGSGGGGSSELTQDPAVSVALGQTVRITCQGDSLRSYYASWYQQKPGQAPVLVIYGKNNRPSGIPDRFSGSSSGNTASLTITGAQAEDEADYYCNSRDSSGNHVVFGGGTKLTVLGGGGCKAK
modifications: Homodimer held by an interchain disulfide between Cys243 of chain 1 and Cys243 of chain 2.
notes: also called Y1-cys-kak scFv; dimer Y1-cys-kak

Tests used:
[1] = target: T1, PSGL-1 on KG-1 cells; experiment: radioreceptor competition assay on KG-1 cells, 125I-Y1-IgG tracer
Procedure: (§1) The assay system involved the use of radioactive ligands that were prepared by iodination with ¹²⁵I using chloramine T on the Y1-IgG construct or the Bolton-Hunter (CONY1) reagent. The assay tubes contained 5×10⁶ KG-1 cells per 0.2 ml and a labeled tracer with varying amounts of unlabeled competitor, in PBS+0.1% BSA, pH 7.4. After one hour incubation with agitation at 4° C., the cells were thoroughly washed with cold buffer and taken for radioactivity counting.
For the radio receptor binding assay (RRA), 2 ng/tube of ¹²⁵I-Y1-IgG was used, and competition was performed with each of the three molecules.

[2] = target: T1, PSGL-1 on KG-1 cells; experiment: second radioreceptor competition assay on KG-1 cells
Procedure: as §1
In a second RRA using labeled CONYL, a 100 ng/tube of ¹²⁵I-Y1-IgG was used, and competition was performed with each of the three molecules.

[3] = target: T1, PSGL-1 on KG-1 cells; experiment: radio receptor assay on KG-1 cells, dimer as competitor
[4] = target: T1, PSGL-1 on KG-1 cells; experiment: FACS on KG-1 cells, directly FITC-labelled
[5] = target: T2, Y1 scFv; experiment: competition ELISA on coated glycocalicin, 0.25 µg/well Y1, peptide 25 µM
T2 construct: Fully human scFv from the Nissim I phage library; Used biotin-labelled in the Western blots; also called scFv Y1; scFv-Y1
T2 sequence (scFv, as listed by the source): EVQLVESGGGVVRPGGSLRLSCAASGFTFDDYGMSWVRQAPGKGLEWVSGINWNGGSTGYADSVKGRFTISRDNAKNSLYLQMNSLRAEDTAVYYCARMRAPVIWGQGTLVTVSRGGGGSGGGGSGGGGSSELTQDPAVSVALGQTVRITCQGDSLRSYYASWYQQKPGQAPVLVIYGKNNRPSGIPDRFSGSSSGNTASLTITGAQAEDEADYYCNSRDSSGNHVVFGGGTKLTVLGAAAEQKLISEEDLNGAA
Procedure: (§2) ELISA assays were developed to evaluate the effect of the GPIb derived synthetic peptides on the binding of Y1 to purified glycocalicin. In addition, FACS analysis using washed platelets was carried out. To evaluate the importance of sulfated tyrosine within the Y1 binding site of GPIb, a competitive binding FACS analysis was used. Y1-scFv at a concentration of 1 μg was preincubated with different peptides at concentrations of 2.5 and 200 μM. After a preincubation for 30 minutes at room temperature the mixture was added to a tube containing ˜10⁷ washed platelets and the binding of Y1 to the washed platelets was assessed using polyclonal rabbit anti-scFv-PE. The inhibitory effect of the peptides compared to control binding (Y1 alone) was evaluated by measuring the residual binding of Y1 to washed platelets. The peptides and the results are described in Table 1 and are similar to results that were observed using the same peptides in an ELISA assay (Table B). In both assays, a control level of Y1 binding was determined, as follows. A polystyrene microtiter maxisorb plate was coated with (a) purified glycocalicin or (b) washed platelets. After extensive washing, 0.5 μg/well of Y1 was added. The plate was then incubated with rabbit anti-scFv followed by addition of anti rabbit —HRP (horse radish peroxidase) and HRP substrate. The level of anti rabbit —HRP binding was measured by the intensity of the color produced, and the level of anti rabbit —HRP binding correlates with the level of binding of anti Y1-scFv and the level of binding of Y1. The optical density was measured at A405. Each sample was assayed in duplicate, and the average was calculated.
(§3) The effect of synthetic GPIbα peptides on Y1 binding to purified glycocalicin was evaluated by mixing varying concentrations of the peptides with a constant amount of Y1. […] The inhibitory effect of the peptides was evaluated by measuring the residual binding of Y1 to glycocalicin using rabbit anti Y1scFv and anti rabbit —HRP antibodies, as described for evaluation of Y1 binding in the absence of peptides.

[6] = target: T2, Y1 scFv; experiment: competition ELISA on coated glycocalicin, 0.25 µg/well Y1, peptide 2.5 µM
Procedure: as §2, §3

[7] = target: T2, Y1 scFv; experiment: competitive FACS, 1 µg Y1-scFv on ~10^7 washed platelets, peptide 2.5 µM
Procedure: as §2

[8] = target: T2, Y1 scFv; experiment: competitive FACS, 1 µg Y1-scFv on ~10^7 washed platelets, peptide 200 µM
Procedure: as §2

[9] = target: T2, Y1 scFv; experiment: competition ELISA on coated glycocalicin, 0.25 µg/well Y1, peptide 0.5 µM
Procedure: as §2, §3

| Binder | Kd [1] | fold higher affinity than CONY1 [1] | fold lower affinity than the full Y1 antibody [1] | Kd [2] | fold higher affinity than CONY1 [2] | fold efficiency against the monomer [3] | fold less material than the monomer [4] | Residual Binding of Y1 (% of baseline) [5] | Residual Binding of Y1 (% of baseline) [6] | Residual Binding of Y1 (% of baseline) (Geo Mean) [7] | Residual Binding of Y1 (% of baseline) (Geo Mean) [8] | Residual Binding of Y1 (% of baseline) [9] |
| --- | --- | --- | --- | --- | --- | --- | --- | --- | --- | --- | --- | --- |
| B1 | ~40 nM | 30 fold | 2 fold | ~50 nM | 20 fold | 30 fold | 10 fold |  |  |  |  |  |
| REEGRQHFFLLEGRSSYS (also called negative control peptide) [EGR] |  |  |  |  |  |  |  | 89 % of baseline | 100 % of baseline | 96 % of baseline | 119 % of baseline | 121 % of baseline |
| TDL[sY]D[sY][sY]PEEDTE [P-2-S] |  |  |  |  |  |  |  | 15 % of baseline | 52 % of baseline | 61 % of baseline | 7 % of baseline | 78 % of baseline |
| GDEGDTDL[sY]D[sY][sY]P [P-3-S] |  |  |  |  |  |  |  | 21 % of baseline | 67 % of baseline | 82 % of baseline | 26 % of baseline | 80 % of baseline |
